From article PMC8809517, “Cofactor-independent RNA editing by a synthetic S-type PPR protein” come the findings set out here.

Changes are numbered by the printed parent chain.

Test in all cases: high-throughput RNA pulldown from lysate on Ni-NTA beads; HRP: 50 mM Tris pH 8, 150 mM NaCl, 1 mM beta-mercaptoethanol, 50 ug/ml BSA, 3 ug/ml yeast RNA, 0.5% heparin; ITC and FP: Tris pH 8, 200 mM KCl, 5% glycerol; MST: 50 mM Tris pH 8, 200 mM NaCl, 1 mM DTT, BSA, heparin, 0.05% Tween 20
Details in all cases: tags: N-terminal His-eGFP

Series [1] has as its target T1, GFP-9S library array, motif 4 ND N98S;D124Q (synthetic construct, N98S;D124Q).
T1 chain: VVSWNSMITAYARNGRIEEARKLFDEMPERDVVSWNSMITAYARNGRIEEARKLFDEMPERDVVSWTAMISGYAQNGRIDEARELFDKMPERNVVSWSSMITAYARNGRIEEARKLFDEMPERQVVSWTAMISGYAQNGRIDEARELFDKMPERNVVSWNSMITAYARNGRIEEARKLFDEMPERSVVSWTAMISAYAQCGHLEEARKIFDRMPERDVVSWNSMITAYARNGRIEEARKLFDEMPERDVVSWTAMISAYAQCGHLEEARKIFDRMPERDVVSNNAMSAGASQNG

Series [2] has as its target T2, GFP-9S library array, motif 4 ND N98I;D124A (synthetic construct, N98I;D124A).
T2 chain: T1 chain with S98I, Q124A

In series [3] the target is T3, GFP-9S library array, motif 4 ND N98M;D124T (synthetic construct, N98M;D124T).
T3 chain: T1 chain with S98M, Q124T

The target of series [4] is T4, GFP-9S library array, motif 4 ND N98W;D124V (synthetic construct, N98W;D124V).
T4 chain: T1 chain with S98W, Q124V

Series [5] has as its target T5, GFP-9S library array, motif 4 ND N98H;D124Q (synthetic construct, N98H;D124Q).
T5 chain: T1 chain with S98H

AUUAUACGUGA (ssRNA) [IR-rpoA-U]: the equilibrium dissociation constant (Kd) is 179 nM in series [1] (label: 5' IRDye 800CW); 757 nM in series [2] (label: 5' IRDye 800CW); 109 nM in series [3] (label: 5' IRDye 800CW); 100 nM in series [4] (label: 5' IRDye 800CW); 31.4 nM in series [5] (label: 5' IRDye 800CW).
As for AUUACACGUGA (ssRNA) [Cy5-rpoA], the Kd stood at 95.2 nM in series [1] (label: 5' Cy5); 213 nM in series [2] (label: 5' Cy5); 124 nM in series [3] (label: 5' Cy5); 41.1 nM in series [4] (label: 5' Cy5); 68.7 nM in series [5] (label: 5' Cy5).
For AUUAGACGUGA (ssRNA) [Cy5-rpoA-G], in that order: 39.2 nM, 259 nM, 115 nM, 50.8 nM and 60.8 nM.
AUUAAACGUGA (ssRNA) [IR-rpoA-A]: the Kd was found to be 40.3 nM in series [1] (label: 5' IRDye 800CW); 620 nM in series [2] (label: 5' IRDye 800CW); 116 nM in series [3] (label: 5' IRDye 800CW); 95.6 nM in series [4] (label: 5' IRDye 800CW); 82.6 nM in series [5] (label: 5' IRDye 800CW).

A word on the Kd: it is a measure of binding affinity in units of concentration. High values mean weaker binding, low ones tighter binding.
